The target in experiment [1] is T1, Cynomolgus monkey DLL3 antigen protein (Kactus Biosystems, Cat. No. CM103) (Cynomolgus monkey, UniProt Q9NYJ7 27-490 (human entry)).
T1 construct: also called cyno DLL3
T1 chain: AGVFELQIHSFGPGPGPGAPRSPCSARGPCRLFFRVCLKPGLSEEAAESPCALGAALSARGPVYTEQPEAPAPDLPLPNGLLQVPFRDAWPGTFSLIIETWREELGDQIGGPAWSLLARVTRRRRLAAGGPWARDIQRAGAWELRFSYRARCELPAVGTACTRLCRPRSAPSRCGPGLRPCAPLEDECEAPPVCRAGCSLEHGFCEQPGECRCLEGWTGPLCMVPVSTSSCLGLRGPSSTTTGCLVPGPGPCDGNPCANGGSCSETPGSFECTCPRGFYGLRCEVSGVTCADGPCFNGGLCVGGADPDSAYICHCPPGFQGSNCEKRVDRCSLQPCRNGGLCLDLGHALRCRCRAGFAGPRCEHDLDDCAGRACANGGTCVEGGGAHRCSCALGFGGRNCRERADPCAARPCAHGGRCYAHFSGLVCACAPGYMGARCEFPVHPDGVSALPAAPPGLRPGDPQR
The experiment is described as follows: ELISA, antigen coated at 2 ug/ml, induced supernatant, anti-Myc HRP. Here is the method:
(§1) In order to obtain a positive antibody that can cross-bind to human DLL3 and Cynomolgus monkey DLL3, the above library was amplified and added to the M13K07 helper phage to assemble phage. 1×10¹² pfu camel immune library phage was added and incubated with biotinylated human DLL3 proteins (8 μg/mL) bound to magnetic beads for 1 h at room temperature. After washing with 0.05% PBST to remove unbound phage, the phage specifically bound to DLL3 was eluted with 100 mM triethylamine. After gradient dilution, log-phase growth of E. coli SS320 was infected and spread on an ampicillin plate overnight at 37° C. A single clone was picked for IPTG-induced expression and the supernatant was used for ELISA detection. The ELISA plate was coated with 2 μg/ml human DLL3 or Cynomolgus monkey DLL3 antigen respectively overnight at 4° C. The plate was washed with 0.05% PBST 3 times, then blocked with 5% skimmed milk for 1 h at room temperature, and washed with 0.05% PBST 3 times. Then 30 μL of induced supernatant was added to each well, and a culture medium was added to a negative control well. The plate was incubated for 1 h at room temperature. Finally, anti-Myc HRP detection was performed (VHH expressed by IPTG induction has his and c-Myc labels). The amino acid sequences of the five heavy chain antibody variable regions of the present disclosure were obtained by sequencing clones from the ELISA assay that bound human and Cynomolgus monkey DLL3 with OD450 values greater than 1.0 and ELISA OD450 ratios greater than 3 to the medium as negative control, with the results shown in Table 1: […]

The target in experiment [2] is T2, human DLL3 antigen protein (Kactus Biosystems, Cat. No. DLL-HM103) (human, UniProt Q9NYJ7 27-492).
T2 sequence: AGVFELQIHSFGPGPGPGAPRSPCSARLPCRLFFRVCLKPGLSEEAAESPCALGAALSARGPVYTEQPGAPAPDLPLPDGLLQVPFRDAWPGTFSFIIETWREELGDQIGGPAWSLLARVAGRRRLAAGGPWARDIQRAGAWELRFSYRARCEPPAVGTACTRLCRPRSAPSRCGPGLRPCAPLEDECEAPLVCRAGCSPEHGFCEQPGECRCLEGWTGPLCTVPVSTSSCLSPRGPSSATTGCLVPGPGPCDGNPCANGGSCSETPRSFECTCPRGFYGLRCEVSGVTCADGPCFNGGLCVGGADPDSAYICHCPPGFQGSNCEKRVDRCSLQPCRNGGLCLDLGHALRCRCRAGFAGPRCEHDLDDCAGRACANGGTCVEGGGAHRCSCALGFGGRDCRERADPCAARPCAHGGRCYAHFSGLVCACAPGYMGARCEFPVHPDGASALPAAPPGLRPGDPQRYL
Described as above. The protocol:
as §1

Experiment [3] has as its target T1, Cynomolgus monkey DLL3 antigen protein …. The experiment is described as follows: affinity assay with Cynomolgus monkey DLL3 antigen protein (kinetics; method not restated, Biacore as in Example 18 implied).
For experiment [4], the target named is T2, human DLL3 antigen protein (Kactus …). Kind of experiment: affinity assay with human DLL3 antigen protein (kinetics; method not restated, Biacore as in Example 18 implied).

These results are taken from patent US20240239878A1 (SHANGHAI QILU PHARMACEUTICAL RESEARCH AND DEVELOPMENT CENTRE, published 2024).

Where a chain is given by its changes, count along the chain named.

B1: DLL3-276 VHH (IPTG-induced supernatant, with his and c-Myc labels) (VHH)
VHH: QVQLVESGGGSVQAGGSLNLSCATSGSTASTTYMGWFRQAPGKGREGVAIIYTARDNPWYANSVKGRFIISQDNAKKTLYLQMNTLKPEDTATYYCAATLANPTRTAWGQGTLVTVSS
notes: not shown: his and c-Myc labels
For the molecule B1, in experiment [1], the “ELISA OD450 ratio to the medium negative control” value (“ELISA OD450 ratio” for short) is more than 3 fold and the OD450 was more than 1 OD450. Also, in experiment [2], the “ELISA OD450 ratio” value is more than 3 fold and the OD450 was more than 1 OD450.

B2: DLL3-12 VHH (IPTG-induced supernatant, with his and c-Myc labels) (VHH)
VHH: QVQLVESGGGLVQPGESLRLSCAGSGFAFSSYDMHWVRQAPGKDFEWVSSISRDGRGPRYADFVKGRFTISKDNGRNMLYLQLNSLEIEDTAMYYCSKGYPIMGGTTQGTQVTVSS
notes: as for B1
In the case of B2, in experiment [1], the “ELISA OD450 ratio” value is more than 3 fold and the OD450 is more than 1 OD450. In addition, in experiment [2], the “ELISA OD450 ratio” value was more than 3 fold and the OD450 is more than 1 OD450.

B3: DLL3-3 VHH (IPTG-induced supernatant, with his and c-Myc labels) (VHH)
VHH: DVQLVESGGGSVQAGGSLKLSCKSPTYTISSGYMGWFRQAPGKEREGVAAIYIGGSTTLYADSVKGRFTISADNAEKTVYLQMNTLKPEDSAMYYCAAQLRPNSAYHPLDGRKYNYWGQGTQVTVSS
notes: as for B1
As to B3, in experiment [1], the “ELISA OD450 ratio” value was more than 3 fold and the OD450 is more than 1 OD450. Further, in experiment [2], the “ELISA OD450 ratio” value is more than 3 fold and the OD450 is more than 1 OD450.

B4: H2-39E2D11-AS humanized antibody variant (antibody, V domains shown)
VH: QVQLVQSGAEVKKPGASVKVSCKASGYTFISYWITWVRQAPGQGLEWMGDIYPGSGSTTNYNEKFKSRVTMTRDTSTSTVYMELSSLRSEDTAVYYCARETTVGGAYAMDYWGQGTLVTVSS
VL: EIVLTQSPATLSLSPGERATLSCRASQSINNNLHWYQQKPGQAPRLLIKYVSQSISGIPARFSGSGSGTDFTLTISSLEPEDFAVYYCQQTASWPLTFGGGTKLEIK
notes: Variant of H2-39E2D11; Its constant regions are not restated
In experiment [3], B4 displayed an equilibrium dissociation constant (Kd) of 1630 pM, an off-rate (koff) of 0.000427 s⁻¹ and a kon of 262000 M⁻¹ s⁻¹. In experiment [4], binding was put at a Kd of 1760 pM, the koff was 0.000362 s⁻¹ and the kon came out at 206000 M⁻¹ s⁻¹.

B5: H2-39E2D11-QS humanized antibody variant (antibody, V domains shown)
VH: B4 VH
VL: B4 VL with A92Q
notes: as for B4
For the molecule B5, in experiment [3], binding was put at a Kd of 434 pM, the koff worked out at 8.59e-05 s⁻¹ and the kon came to 198000 M⁻¹ s⁻¹. In experiment [4], binding was characterised by a dissociation constant (Kd) of 229 pM, the koff was found to be 3.91e-05 s⁻¹ and the kon was 171000 M⁻¹ s⁻¹.

B6: H2-39E2D11-NA humanized antibody variant (antibody, V domains shown)
VH: B4 VH
VL: B4 VL with A92N, S93A
notes: as for B4
In experiment [3], B6 returned a Kd of 346 pM, a koff of 8.09e-05 s⁻¹ and a kon of 233000 M⁻¹ s⁻¹. In experiment [4], this molecule returned a Kd of 484 pM, a koff of 0.00012 s⁻¹ and a kon of 247000 M⁻¹ s⁻¹.

B7: DLL3-122 VHH (IPTG-induced supernatant, with his and c-Myc labels) (VHH)
VHH: QVQLVESGGGSVQAGGSLRLSCTASGDTYRSYCMGWFRKAPGKEREGVADIVSDGSTSYADSVKGRFTISKDNAKNTLYLQMNSLKPEDTAMYYCAVDRGGSGGYCYTGRYDYWGQGTQVTVSS
notes: as for B1
In the case of B7, the “ELISA OD450 ratio” value in experiment [1] and in experiment [2] was more than 3 fold each time. The OD450 in experiment [1] and in experiment [2] was more than 1 OD450 each time.

B8: DLL3-26 VHH (IPTG-induced supernatant, with his and c-Myc labels) (VHH)
VHH: QVQLVESGGGSVQAGGSLRLSCAASGDIYSSSYVGWFRQAPGKEREGVAIIYTSGDSTYYANSVKGRFTISQDKAKKTLYLQMNSLKPEDTAMYYCAARFAIDNSNYWGQGTQVTVSS
notes: as for B1
Regarding B8, the “ELISA OD450 ratio” value in experiment [1] and in experiment [2] was more than 3 fold each time. In addition, the OD450 in experiment [1] and in experiment [2] was more than 1 OD450 each time.
